Measured values as given in publication PMC2815190 (Molecular immunology, 2009).

What was measured:
[1] = molecular target: human Toll-like receptor 8 with the RQSYA motif deleted (human) (UniProt Q9NR97); experiment: immunoblot of cell lysate
[2] = molecular target: the molecule itself; experiment: immunoblot of cell lysate

For “human Toll-like receptor 8 with the RQSYA motif deleted (from UniProt Q9NR97-1 27-1041)”, the stoichiometry N [1] was 2.

B1: human Toll-like receptor 8, wild type (receptor, UniProt Q9NR97-1 27-1041, looked up)
chain: EENFSRSYPCDEKKQNDSVIAECSNRRLQEVPQTVGKYVTELDLSDNFITHITNESFQGLQNLTKINLNHNPNVQHQNGNPGIQSNGLNITDGAFLNLKNLRELLLEDNQLPQIPSGLPESLTELSLIQNNIYNITKEGISRLINLKNLYLAWNCYFNKVCEKTNIEDGVFETLTNLELLSLSFNSLSHVPPKLPSSLRKLFLSNTQIKYISEEDFKGLINLTLLDLSGNCPRCFNAPFPCVPCDGGASINIDRFAFQNLTQLRYLNLSSTSLRKINAAWFKNMPHLKVLDLEFNYLVGEIASGAFLTMLPRLEILDLSFNYIKGSYPQHINISRNFSKLLSLRALHLRGYVFQELREDDFQPLMQLPNLSTINLGINFIKQIDFKLFQNFSNLEIIYLSENRISPLVKDTRQSYANSSSFQRHIRKRRSTDFEFDPHSNFYHFTRPLIKPQCAAYGKALDLSLNSIFFIGPNQFENLPDIACLNLSANSNAQVLSGTEFSAIPHVKYLDLTNNRLDFDNASALTELSDLEVLDLSYNSHYFRIAGVTHHLEFIQNFTNLKVLNLSHNNIYTLTDKYNLESKSLVELVFSGNRLDILWNDDDNRYISIFKGLKNLTRLDLSLNRLKHIPNEAFLNLPASLTELHINDNMLKFFNWTLLQQFPRLELLDLRGNKLLFLTDSLSDFTSSLRTLLLSHNRISHLPSGFLSEVSSLKHLDLSSNLLKTINKSALETKTTTKLSMLELHGNPFECTCDIGDFRRWMDEHLNVKIPRLVDVICASPGDQRGKSIVSLELTTCVSDVTAVILFFFTFFITTMVMLAALAHHLFYWDVWFIYNVCLAKVKGYRSLSTSQTFYDAYISYDTKDASVTDWVINELRYHLEESRDKNVLLCLEERDWDPGLAIIDNLMQSINQSKKTVFVLTKKYAKSWNFKTAFYLALQRLMDENMDVIIFILLEPVLQHSQYLRLRQRICKSSILQWPDNPKAEGLFWQTLRNVVLTENDSRYNNMYVDSIKQY
B1 was tested, and the “stoichiometry N” value [2] was 2.
